This is an account of results in patent publication US20040013674A1 (APOXIS, published 2004).

Assay [1] concerns the target T1, FLAG-tagged soluble muBAFF (murine, UniProt Q9WU72 127-309, limits assumed).
T1 construct: not shown: FLAG tag
The experiment in a line: co-immunoprecipitation on protein A-Sepharose, anti-FLAG M2 Western blot. Here is the method:
250 μl of Optimem containing hTACI(1-160)-Ig was mixed with various FLAG ligands of the TNF family. Some of the ligands were in Optimem while others were anti-FLAG (mAb M2)-purified. The common characteristic was that the amount used was empirically the same (500 ng for purified ligands, i.e. hBAFF, muBAFF, TRAIL, FasL, EDA). Ligands were produced in bacteria (HBAFF, TRAIL) or transiently expressed in 293 EBNA cells (all others). Control Receptors-Fc were mostly used as Optimem supernates, except TNFR1, OX40, LTBR, which were purified over protein-A columns. 1 μg of purified receptors was used. Receptor-Fc proteins (about 1 μg) were mixed with FLAG-ligands (about 500 ng). Volume was adjusted to 1.2 ml with PBS and 5 μl of protein A-Sepharose was added. Incubation was performed for 1 h at 4° C. on a wheel. Beads were harvested by centrifugation and loaded onto a minicolumn (yellow tips with 1 mm diameter frit). Washes were performed by applying vacuum at the bottom of the column to aspirate medium and 2 times 400 μl PBS washes. The dried beads were eluted with 20 μl of Citrate-NaOH pH 2.7 and the eluate was neutralized with 6 μl of 1M Tris-HCl pH 9.0. 10 μl 3x sample buffer plus DTT was added, the sample was boiled and 22 μl loaded for Western blot analysis. […] ECL was used to illuminate the signal. […]
On the technique in general: Immunoblotting shows a protein as a band on a membrane.

Assay [2] concerns the target T2, N-terminally FLAG-tagged full length human TACI, expressed on 293EBNA cells (plasmid pJST552) (human, UniProt O14836 1-293).
T2 construct: also called flag-tagged full length TACI; TACI transfected cells; not shown: N-terminal FLAG tag (and any leader) of the pJST552 insert
T2 sequence: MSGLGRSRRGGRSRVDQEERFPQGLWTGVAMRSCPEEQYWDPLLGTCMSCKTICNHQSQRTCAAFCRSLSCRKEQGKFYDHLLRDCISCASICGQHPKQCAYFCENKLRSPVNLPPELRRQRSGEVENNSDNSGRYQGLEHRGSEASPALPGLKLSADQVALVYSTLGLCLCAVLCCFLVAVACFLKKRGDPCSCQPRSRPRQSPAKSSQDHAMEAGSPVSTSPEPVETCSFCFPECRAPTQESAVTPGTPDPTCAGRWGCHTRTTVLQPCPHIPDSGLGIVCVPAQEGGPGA
The experiment in a line: FACS on 293EBNA cells transfected with pJST552; rabbit anti-murine APRIL and donkey anti-rabbit-PE. As to the method:
FIG. 8 is a schematic representation of purified myc-tagged murine APRIL binding to TACI transfected cells. 293EBNA cells were transfected with expression plasmid pJST552 that expressed FLAG-tagged full length human TACI. Cells were harvested 48 hours later using 5 mM EDTA and stained with myc-tagged murine APRIL at various concentrations. No protein control was stained with detection reagents (rabbit anti-murine APRIL and donkey anti-rabbit-PE (Jackson Immnunoresearch)). Staining in FL1 of protein encoded by the cotransfected GFP expression plasmid illustrates expression efficiency.
293EBNA cells were co-transfected with a plasmids expressing full length N-terminally FLAG tagged human TACI (pJST552)(see FIG. 2), and a GFP marker, (AN050). Transfections were performed using Lipofectamine 2000 (LifeTechnologies) according to manufacturer's conditions. Transfection media was DMEM supplemented with 10% FBS, 4 mM glutamine, and 50 μM Z-VAD (BACHEM Bioscience Inc.) Cells were harvested with PBS supplemented with 5 mM EDTA at 24 hours post-transfection. Cells were washed in FACS buffer (PBS-10% FBS-0.02% NaN₃) and resuspended at a density of 5×10⁶ cells/mL. […] The samples were analyzed by FACS and plotted (FIG. 8). Cell gate analyzed is shown as R1. […]

T1 sequence (Q9WU72 127-309 limits assumed): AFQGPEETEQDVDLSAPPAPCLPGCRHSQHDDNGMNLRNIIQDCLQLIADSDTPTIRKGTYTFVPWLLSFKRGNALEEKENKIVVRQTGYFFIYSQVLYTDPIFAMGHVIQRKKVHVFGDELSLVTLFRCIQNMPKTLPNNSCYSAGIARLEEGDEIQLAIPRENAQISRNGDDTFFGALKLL

B1: human TACI(1-160)-Ig fusion protein (plasmid PS882) (Fc fusion)
chain: MSGLGRSRRGGRSRVDQEERFPQGLWTGVAMRSCPEEQYWDPLLGTCMSCKTICNHQSQRTCAAFCRSLSCRKEQGKFYDHLLRDCISCASICGQHPKQCAYFCENKLRSPVNLPPELRRQRSGEVENNSDNSGRYQGLEHRGSEASPALPGLKLSADQV
notes: Used as conditioned medium (Optimem) of 293 cells; also called hTACI(1-160)-Ig; soluble hTACI(1-160)-Ig; not shown: human IgG Fc
Regarding B1, the binding result in assay [1] is on record as “no binding (tested: 500 ng purified ligand)”.

B2: myc-tagged murine APRIL (A88), expressed in Pichia pastoris (plasmid pCMM276) (ligand)
chain: EQKLISEEDLNGGGGSKELAVLTQKHKKKHSVLHLVPVNITSKDSDVTEVMWQPVLRRGRGLEAQGDIVRVWDTGIYLLYSQVLFHDVTFTMGQVVSREGQGRRETLFRCIRSMPSDPDRAYNSCYSAGVFHLHQGDIITVKIPRANAKLSLSPHGTFLGFVKL
modifications: glycosylated (as printed in paragraph 69)
notes: also called myc-muAPRIL; Myc-Murine APRIL A88
For B2, the binding result in assay [2] is recorded as “binds”.
